# Molecular target: Full-length human CRM1 (HsCRM1), O14980
# Assay: GST pull-down, SDS/PAGE band intensity
# Settings: chain shown with the change; excess ScRanGTP; triplicate experiments; parent: est. 100; read off a plot
# Chain of Full-length human CRM1 (HsCRM1), O14980 (O14980 whole entry): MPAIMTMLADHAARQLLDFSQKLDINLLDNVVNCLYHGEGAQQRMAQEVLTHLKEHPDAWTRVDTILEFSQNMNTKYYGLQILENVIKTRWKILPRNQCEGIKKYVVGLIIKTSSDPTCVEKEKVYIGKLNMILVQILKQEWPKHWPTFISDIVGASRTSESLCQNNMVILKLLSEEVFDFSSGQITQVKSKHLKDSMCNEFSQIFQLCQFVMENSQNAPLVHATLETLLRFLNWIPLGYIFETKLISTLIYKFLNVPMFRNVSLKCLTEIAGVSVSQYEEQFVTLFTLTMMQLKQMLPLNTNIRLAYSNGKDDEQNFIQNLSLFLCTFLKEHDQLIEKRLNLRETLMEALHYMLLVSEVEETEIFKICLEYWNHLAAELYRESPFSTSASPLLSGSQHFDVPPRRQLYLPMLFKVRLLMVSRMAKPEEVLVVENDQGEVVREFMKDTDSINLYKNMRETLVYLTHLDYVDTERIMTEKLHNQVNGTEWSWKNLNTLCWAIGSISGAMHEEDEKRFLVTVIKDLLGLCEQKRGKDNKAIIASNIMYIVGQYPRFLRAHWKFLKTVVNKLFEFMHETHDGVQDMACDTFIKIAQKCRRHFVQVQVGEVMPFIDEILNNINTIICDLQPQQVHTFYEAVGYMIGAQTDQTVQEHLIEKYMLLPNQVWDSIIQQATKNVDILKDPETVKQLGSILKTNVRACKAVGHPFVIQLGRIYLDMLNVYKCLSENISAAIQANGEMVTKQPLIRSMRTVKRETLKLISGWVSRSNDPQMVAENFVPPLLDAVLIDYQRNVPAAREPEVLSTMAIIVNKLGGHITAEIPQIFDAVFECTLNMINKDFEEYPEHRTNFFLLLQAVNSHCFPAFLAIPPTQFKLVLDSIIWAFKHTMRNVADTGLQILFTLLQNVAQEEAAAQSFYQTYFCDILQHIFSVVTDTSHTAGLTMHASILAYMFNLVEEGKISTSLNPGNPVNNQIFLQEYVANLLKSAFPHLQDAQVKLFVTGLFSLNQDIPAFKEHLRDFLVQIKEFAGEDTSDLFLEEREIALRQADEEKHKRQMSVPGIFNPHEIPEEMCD
row,Binder,percent of parent
1,GKIEELAQNFETMEISR [GST-hRio2NES-R F13I],150%
2,GKIEELAQNFETLEFSR [GST-hRio2NES-R M11L],105%

# The remaining lines, values ahead:
row,percent of parent,Binder
1,140%,GKIEELAQNFETMEVSR [GST-hRio2NES-R F13V]
2,130%,GKIEELAQNFETMELSR [GST-hRio2NES-R F13L]

# Reference: paper PMC4596688, “Structural determinants of nuclear export signal orientation in binding to exportin CRM1” (eLife, 2015)
